US20200115432A1 (published 2020)

Legend:
peptide on HLA-A*02:01 = molecular target: T1, peptide on HLA-A*02:01 (human); test: activation reporter or marker
T1 peptide: VYALPLKML

peptide on HLA-A*24:02 = molecular target: T2, peptide on HLA-A*24:02 (human); test: activation reporter or marker
T2 peptide: VYALPLKML

B1: JG9-TCR (TCR, V domains shown)
Valpha: GQQLNQSPQSMFIQEGEDVSMNCTSSSIFNTWLWYKQEPGEGPVLLIALYKAGELTSNGRLTAQFGITRKDSFLNISASIPSDVGIYFCAGPMKTSYDKVIFGPGTSLSVIP
Vbeta: DAGVIQSPRHEVTEMGQEVTLRCKPISGHDYLFWYRQTMMRGLELLIYFNNNVPIDDSGMPEDRFSAKMPNASFSTLKIQPSEPRDSAVYFCASSSANYGYTFGSGTRLTVV
- binding result (peptide on HLA-A*02:01): no recognition
- binding result (peptide on HLA-A*24:02): no recognition
